Assay results: article PMC8710476 (Frontiers in Immunology, 2021)

Target: T1, SARS-CoV-2 full-length spike, WT D614G, expressed on the cell surface (SARS-CoV-2, wild type with D614G, UniProt A0A6H1PJZ3, D614G)
T1 construct: also called wild-type spike
Assay: flow cytometry on cells
Settings: one partner purified

B1: REGN10987 (class III) (antibody, V domains shown)
VH: QVQLVESGGGVVQPGRSLRLSCAASGFTFSNYAMYWVRQAPGKGLEWVAVISYDGSNKYYADSVKGRFTISRDNSKNTLYLQMNSLRTEDTAVYYCASGSDYGDYLLVYWGQGTLVTVSS
VL: QSALTQPASVSGSPGQSITISCTGTSSDVGGYNYVSWYQQHPGKAPKLMIYDVSKRPSGVSNRFSGSKSGNTASLTISGLQSEDEADYYCNSLTSISTWVFGGGTKLTVL
  binding result: binds
